Here are results for one molecule from paper doi:10.1101/2023.12.22.573000.

The target of this series is T1, RIG-I (recombinant) (human? (GeneID 23586), UniProt O95786 1-925).
T1 sequence: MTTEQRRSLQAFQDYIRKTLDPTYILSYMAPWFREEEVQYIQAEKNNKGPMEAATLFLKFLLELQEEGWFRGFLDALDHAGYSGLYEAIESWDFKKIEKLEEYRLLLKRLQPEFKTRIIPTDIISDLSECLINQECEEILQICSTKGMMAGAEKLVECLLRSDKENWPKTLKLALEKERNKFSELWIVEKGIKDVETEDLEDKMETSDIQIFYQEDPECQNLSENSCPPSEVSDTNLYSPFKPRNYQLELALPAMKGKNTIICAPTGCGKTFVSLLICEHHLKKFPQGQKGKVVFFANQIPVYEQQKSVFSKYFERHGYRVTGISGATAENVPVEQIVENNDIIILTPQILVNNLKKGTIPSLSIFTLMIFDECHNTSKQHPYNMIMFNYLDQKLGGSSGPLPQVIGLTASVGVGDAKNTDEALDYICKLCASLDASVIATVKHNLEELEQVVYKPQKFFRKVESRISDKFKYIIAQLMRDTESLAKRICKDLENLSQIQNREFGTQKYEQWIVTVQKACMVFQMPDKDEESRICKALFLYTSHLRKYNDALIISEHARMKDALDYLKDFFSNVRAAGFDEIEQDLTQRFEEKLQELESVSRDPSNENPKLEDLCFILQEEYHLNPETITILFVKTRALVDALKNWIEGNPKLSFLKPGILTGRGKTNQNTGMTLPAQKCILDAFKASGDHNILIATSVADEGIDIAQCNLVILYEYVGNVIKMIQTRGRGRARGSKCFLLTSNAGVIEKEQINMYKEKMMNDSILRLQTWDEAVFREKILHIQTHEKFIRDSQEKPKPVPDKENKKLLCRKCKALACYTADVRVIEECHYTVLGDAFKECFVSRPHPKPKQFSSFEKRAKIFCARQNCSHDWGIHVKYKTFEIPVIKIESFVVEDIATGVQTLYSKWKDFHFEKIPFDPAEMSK
The series can be described thus: EMSA.

B1: 5'-pppG synthetic 24 bp dsRNA (dsRNA)
RNA 1: GGCAAAAGCAGGGUGACAAAGACA
RNA 2: UGUCUUUGUCACCCUGCUUUUGCC
modifications: 5'-ppp on sense strand only
The term Kd denotes the equilibrium constant for the complex coming apart. For B1, the Kd was 0.94 nM.
